Data from patent US7838249 (BOARD OF REGENTS OF THE UNIVERSITY OF OKLAHOMA, dated 2010).
Blank lines part the entries; values can stand above or below the molecule they belong to.

Legend:
[1] = molecular target: TrkA (high-affinity NGF receptor), expressed in PC12 cells from pBI/TrkA; test: cell-based or functional assay
GST-Rabex-5(135-399) = molecular target: T1, GST-Rabex-5(135-399) (Bos taurus, UniProt O18973 135-399); test: GST pull-down, SDS-PAGE, Coomassie staining
T1 construct: Immobilized on glutathione Sepharose-4B; also called the GEF domain itself
T1 sequence (O18973 other isoform, or with tags, fused parts or gaps limits assumed): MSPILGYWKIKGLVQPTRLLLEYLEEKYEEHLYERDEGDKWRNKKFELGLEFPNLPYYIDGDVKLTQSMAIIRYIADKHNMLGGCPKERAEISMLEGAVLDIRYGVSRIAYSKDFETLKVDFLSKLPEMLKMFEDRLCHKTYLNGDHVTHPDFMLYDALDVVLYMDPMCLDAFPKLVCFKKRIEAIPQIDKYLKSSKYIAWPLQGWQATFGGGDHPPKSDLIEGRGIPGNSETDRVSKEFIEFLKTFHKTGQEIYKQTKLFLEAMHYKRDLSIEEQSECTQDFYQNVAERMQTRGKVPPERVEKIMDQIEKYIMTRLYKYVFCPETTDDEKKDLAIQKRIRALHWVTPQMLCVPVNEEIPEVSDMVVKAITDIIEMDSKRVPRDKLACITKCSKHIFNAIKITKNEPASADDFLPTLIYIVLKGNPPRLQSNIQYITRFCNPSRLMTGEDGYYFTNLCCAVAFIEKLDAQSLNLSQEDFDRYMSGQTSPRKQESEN
Description: The final concentration of each protein was <2 μM for detection of specific binding. The resins were subsequently washed three times with phosphate-buffered saline (PBS) and resuspended in 20 μl of SDS sample buffer. The samples were subjected to 20% SDS-PAGE analysis, and the proteins were visualized by Coomassie brilliant blue staining.
The bound proteins were analyzed by SDS-PAGE and visualized by Coomassie blue staining. […] Molecular mass standards (in kilodaltons) are indicated on the left of the panel.

Sequence of TrkA (high-affinity NGF receptor), expressed in PC12 cells from pBI/TrkA (P35739 33-799): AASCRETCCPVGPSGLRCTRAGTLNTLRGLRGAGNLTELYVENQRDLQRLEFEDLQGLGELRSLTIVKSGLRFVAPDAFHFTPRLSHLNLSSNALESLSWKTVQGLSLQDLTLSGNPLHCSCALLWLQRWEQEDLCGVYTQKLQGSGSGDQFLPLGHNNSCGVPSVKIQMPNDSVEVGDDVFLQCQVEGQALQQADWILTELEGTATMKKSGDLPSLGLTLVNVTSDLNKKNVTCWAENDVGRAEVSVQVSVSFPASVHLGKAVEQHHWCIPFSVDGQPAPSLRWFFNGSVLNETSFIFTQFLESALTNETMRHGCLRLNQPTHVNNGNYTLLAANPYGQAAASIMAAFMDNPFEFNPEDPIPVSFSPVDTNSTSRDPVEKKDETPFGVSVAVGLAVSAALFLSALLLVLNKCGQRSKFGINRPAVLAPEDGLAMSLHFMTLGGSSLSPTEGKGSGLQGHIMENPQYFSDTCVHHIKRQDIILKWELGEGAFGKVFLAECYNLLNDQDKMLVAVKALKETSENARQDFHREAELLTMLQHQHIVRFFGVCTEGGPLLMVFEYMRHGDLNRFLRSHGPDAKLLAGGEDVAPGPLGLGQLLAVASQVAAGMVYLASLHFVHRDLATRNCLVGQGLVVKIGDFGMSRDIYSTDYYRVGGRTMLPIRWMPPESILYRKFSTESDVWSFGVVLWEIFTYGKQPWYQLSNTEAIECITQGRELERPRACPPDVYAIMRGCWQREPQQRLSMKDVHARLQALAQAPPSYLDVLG

NGF-mediated neurite outgrowth (percentage of differentiated PC12 cells) [1]: 20%
Molecule: Myc-tagged RabGAP5-C (residues 441-749) (from UniProt F1LQU9 454-763)

binding result (GST-Rabex-5(135-399)): no binding
B1: 6-His-Rabaptin-5(551-862) (other)
chain: HHHHHHAETRDQVKKLQLMLRQANDQLEKTMKDKQELEDFIKQSSEDSSHQISALVLRAQASEILLEELQQGLSQAKRDVQEQMAVLMQSREQVSEELVRLQKDNDSLQGKHSLHVSLQQAEDFILPDTTEALRELVLKYREDIINVRTAADHVEEKLKAEILFLKEQIQAEQCLKENLEETLQLEIENCKEEIASISSLKAELERIKVEKGQLESTLREKSQQLESLQEIKISLEEQLKKETAAKATVEQLMFEEKNKAQRLQTELDVSEQVQRDFVKLSQTLQVQLERIRQADSLERIRAILNDTKLTDINQLPET

binding result (GST-Rabex-5(135-399)): no binding
B2: 6-His-Rabaptin-5(551-661) (other)
chain: HHHHHHAETRDQVKKLQLMLRQANDQLEKTMKDKQELEDFIKQSSEDSSHQISALVLRAQASEILLEELQQGLSQAKRDVQEQMAVLMQSREQVSEELVRLQKDNDSLQGKHSLHVS
notes: Purified from E. coli BL21(DE3)
